Reference: patent US11981713B2, “Method for manufacturing a stable emulsion for peptide delivery” (OSE IMMUNOTHERAPEUTICS, priority 2017, dated 2024)

How the values were obtained:
Type in all cases: physicochemical
[1] = Comparative experiment: emulsion made with high shear mixer, consistency and peptide oxidation; conditions: high shear mixer batches at 5000 and 8000 rpm
Experimental: The suspension prepared as described in Example 1 was mixed with the same adjuvant, in the same ratio, except that mixing was conducted by means of a high shear mixer (Silverson® Verso) having a rotor-stator configuration. […] Other batches obtained with the same mixer at 5000 and 8000 rpm led to peptide degradation. Specifically, 8.5% oxidation of peptide […] (SEQ ID NO: 5) was noted after 6 weeks storage at 4° C. and still 2% oxidation at −20° C.

[2] = Peptide concentration in emulsions prepared with different stirring times; conditions: initial concentration in emulsion
Experimental: Emulsions according to this invention were prepared as described in Example 5, using different stirring times.

[3] = Chemical stability of the emulsion (peptide content by LC/MS); conditions: for Content after 2 month at 5° C.: emulsion of Example 5, 2 month at 5° C.; for Content after 2 month at 25° C.: emulsion of Example 5, 2 month at 25° C.; for Content after 2 month at −20° C.: emulsion of Example 5, 2 month at −20° C.; for Initial content: emulsion of Example 5, initial
Experimental: The chemical stability of the peptides contained in the emulsion prepared according to Example 5 is assessed by means of the following method.
A sample of 0.9 g of the emulsion of Example 5 is accurately weighted and mixed with 0.1% TFA in DMSO so as to fill a 5 mL volumetric flask. The mixture is then vortexed for 2 minutes and centrifuged for 7 minutes at 4000 rpm. The lower layer is then analyzed by Liquid Chromatography/Mass Spectroscopy (LC/MS) using the following chromatographic conditions:
Column: Advance Bio Peptide Mapping LC column, 2.1×250 mm, 2.7 μm, C18, 120 Å, Agilent® reference n° 651750-902 or equivalent
Column temperature: 35° C.±2° C.
Sample temperature: 5° C.
Needle wash: 0.1% Trifluoroacetic acid (TFA) in dimethylsulfoxide (DMSO)
Mobile phase: Eluent A: 0.2% TFA in 5% acetonitrile
• Eluent B: 0.2% TFA in 95% acetonitrile Gradient table: […]
A standard solution is prepared by transferring 0.9 mL of the batch suspension described in Example 1 with 1.1 mL of Montanide ISA 51 in a 10.0 mL volumetric flask, then vortexing and centrifuging the mixture as described above. The lower layer thus obtained is analyzed in the same conditions as above.
The concentration of each peptide is expressed in mg/g using the formula:
[formula] where: A: is the peak area of each peptide in the sample solution S: is the peak area of each peptide in the standard solution W: is the sample weight expressed in g

Substance	oxidation ([1]; after 6 weeks storage at 4° C.)	oxidation ([1]; storage at −20° C.)	Concentration ([2]; stirring time 5 minutes)	Concentration ([2]; stirring time 10 minutes)	Concentration ([2]; stirring time 15 minutes)	Content after 2 month at 5° C. [3]	Content after 2 month at 25° C. [3]	Content after 2 month at −20° C. [3]	Initial content [3]
IMIGHLVGV [MPS-214]	16.5%	4%	530 µg/mL	530 µg/mL	530 µg/mL	0.51 mg/g	0.50 mg/g	0.51 mg/g	0.53 mg/g
RLLQETELV [MPS-112]			560 µg/mL	570 µg/mL	560 µg/mL	0.55 mg/g	0.55 mg/g	0.55 mg/g	0.57 mg/g
SMPPPGTRV [MPS-103]	8.5%	2%	530 µg/mL	560 µg/mL	540 µg/mL	0.54 mg/g	0.54 mg/g	0.55 mg/g	0.55 mg/g
KLBPVQLWV [MPS-102]			560 µg/mL	570 µg/mL	560 µg/mL	0.55 mg/g	0.55 mg/g	0.55 mg/g	0.57 mg/g
aKXVAAWTLKAAa [MPS-7, peptide with X and a respectively indicating cyclohexylalanine and d-alanine]			580 µg/mL	580 µg/mL	570 µg/mL	0.56 mg/g	0.56 mg/g	0.56 mg/g	0.58 mg/g
LLTFWNPPV [MPS-213]			560 µg/mL	560 µg/mL	560 µg/mL	0.54 mg/g	0.54 mg/g	0.55 mg/g	0.56 mg/g
YLSGADLNL [MPS-200]			570 µg/mL	570 µg/mL	570 µg/mL	0.56 mg/g	0.55 mg/g	0.56 mg/g	0.58 mg/g
